Source: US20200181255A1 (Amgen, published 2020)
Where a chain is given by its changes, count along the chain named. Blank lines part the entries; values can stand above or below the binder they belong to.

How the values were obtained:
[1] = target: T1, recombinant human IL-23 (human, UniProt Q9NPF7 20-189; P29460 23-328); test: cell-based or functional assay
T1 sequence 1: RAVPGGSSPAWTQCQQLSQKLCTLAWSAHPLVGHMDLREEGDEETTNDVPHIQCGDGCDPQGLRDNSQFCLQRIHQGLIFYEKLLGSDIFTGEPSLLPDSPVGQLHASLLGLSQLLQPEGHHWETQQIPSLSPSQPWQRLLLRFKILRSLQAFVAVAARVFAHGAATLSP
T1 sequence 2: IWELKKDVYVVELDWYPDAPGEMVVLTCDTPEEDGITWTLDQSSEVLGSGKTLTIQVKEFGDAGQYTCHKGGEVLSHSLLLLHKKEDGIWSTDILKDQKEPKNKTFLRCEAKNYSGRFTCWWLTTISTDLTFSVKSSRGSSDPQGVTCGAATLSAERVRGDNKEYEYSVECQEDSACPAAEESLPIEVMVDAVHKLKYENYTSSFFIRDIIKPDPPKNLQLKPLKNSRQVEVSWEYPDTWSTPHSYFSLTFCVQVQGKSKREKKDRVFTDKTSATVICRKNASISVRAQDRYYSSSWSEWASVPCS

[2] = target: T2, recombinant cynomolgous IL-23 (cynomolgous); test: cell-based or functional assay
T2 chain 1: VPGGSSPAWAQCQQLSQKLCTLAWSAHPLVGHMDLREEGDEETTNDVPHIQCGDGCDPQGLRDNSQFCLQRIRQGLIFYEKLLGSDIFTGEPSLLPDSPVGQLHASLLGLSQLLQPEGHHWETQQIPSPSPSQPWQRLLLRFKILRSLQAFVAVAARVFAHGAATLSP
T2 chain 2: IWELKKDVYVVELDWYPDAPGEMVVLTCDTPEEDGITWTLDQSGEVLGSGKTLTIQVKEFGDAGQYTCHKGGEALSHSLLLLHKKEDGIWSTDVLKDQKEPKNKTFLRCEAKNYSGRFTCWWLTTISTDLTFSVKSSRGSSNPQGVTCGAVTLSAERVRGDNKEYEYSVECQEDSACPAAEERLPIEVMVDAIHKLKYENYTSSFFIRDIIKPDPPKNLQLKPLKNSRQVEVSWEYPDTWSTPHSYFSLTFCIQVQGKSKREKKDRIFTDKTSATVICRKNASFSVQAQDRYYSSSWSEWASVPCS

[3] = target: T1, recombinant human IL-23; test: cell-based or functional assay; remark: listed apart in the source
[4] = target: T2, recombinant cynomolgous IL-23; test: cell-based or functional assay
[5] = target: T3, Native human IL-23 (human, UniProt Q9NPF7 20-189; P29460 23-328); test: cell-based or functional assay
T3 sequence 1: T1 sequence 1
T3 sequence 2: T1 sequence 2

[6] = target: T1, recombinant human IL-23; test: KinExA
[7] = target: T1, recombinant human IL-23; test: KinExA, solution equilibrium, rhuIL-23-coated beads
Procedure: Normal human serum (NHS)-activated Sepharose 4 fast flow beads (Amersham Biosciences, part of GE Healthcare, Uppsala, Sweden), are pre-coated with rhuIL-23 and blocked with 1 m Tris buffer with 10 mg/mL BSA. 50 pM of IL-23 antibody is incubated with rhuIL-23 (12 points of 1:2 dilutions starting from 800 pM) at room temperature for 72 hours before it is run through the rhuIL-23-coated Sepharose beads. The amount of the bead-bound antibody was quantified by fluorescent (Cy5) labeled goat anti-human-Fc antibody (Jackson Immuno Research, West Grove, Pa.). The binding signal is proportional to the amount of free antibody at equilibrium.

[8] = target: T1, recombinant human IL-23; test: cell-based or functional assay; remark: listed apart in the source
[9] = target: T2, recombinant cynomolgous IL-23; test: cell-based or functional assay
[10] = target: T1, recombinant human IL-23; test: cell-based or functional assay; remark: listed apart in the source
[11] = target: T2, recombinant cynomolgous IL-23; test: cell-based or functional assay
[12] = target: T3, Native human IL-23; test: cell-based or functional assay; remark: listed apart in the source
[13] = target: T1, recombinant human IL-23; test: KinExA, derived from KD=Koff/Kon

B1: Antibody A (antibody, V domains shown)
VH: QVQLQESGPGLVKPSQTLSLTCTVSGGSISSGGYYWSWIRQHPGKGLEWIGYIYYSGSTYYNPSLKSRVTMSVDTSKNQFSLKLSSVTAADTAVYYCAKNRGFYYGMDVWGQGTTVTVSS
VL: DIQLTQSPSSVSASVGDRVTITCRASQVISSWFAWYQQKPGKAPNLLIYAASSLQSGVPSRFSGSGSGTDFTLTISSLQPADFATYFCQQANSFPFTFGPGTKVDVK
IC50 (pM), NK cell assay (IFNγ) [1]: 42 pM
IC50 (pM), NK cell assay (IFNγ) [2]: 31 pM
IC50 (pM), STAT-luciferase assay [3]: 190 pM
IC50 (pM), STAT-luciferase assay [4]: 379 pM
IC50 (pM), STAT-luciferase assay [5]: 114 pM

B2: Antibody H (antibody, V domains shown)
VH: B1 VH with S37T, S58N, V69I, M71I, K83S, K99R, F103Y
VL: B1 VL with L4M, V28G, I29F, S31G, F33L, N45K, A81E, F87Y, V106I
IC50 (pM), NK cell assay (IFNγ) [1]: 29 pM
IC50 (pM), NK cell assay (IFNγ) [2]: 33 pM
IC50 (pM), STAT-luciferase assay [3]: 253 pM
IC50 (pM), STAT-luciferase assay [4]: 1024 pM
IC50 (pM), STAT-luciferase assay [5]: 192 pM

B3: Antibody B (antibody, V domains shown)
VH: B1 VH with Y52H, Y54H, S58N, M71I
VL: B1 VL with L4M, F33L, N45S, G66V, A81E, F87Y, V106F
notes: also called VH9/VL9
kon [6]: 1.17e+06 M⁻¹ s⁻¹
Kd [7]: 3.99 pM
IC50 (pM), IL-22 human whole blood assay [8]: 117 pM
IC50 (pM), IL-22 human whole blood assay [9]: 113 pM
IC50 (pM), IFNγ human whole blood assay [10]: 117 pM
IC50 (pM), IFNγ human whole blood assay [11]: 161 pM
IC50 (pM), NK cell assay (IFNγ) [1]: 48 pM
IC50 (pM), NK cell assay (IFNγ) [2]: 19 pM
IC50 (pM), NK cell assay (IFNγ) [12]: 85 pM
koff [13]: 4.7e-06 s⁻¹
IC50 (pM), STAT-luciferase assay [3]: 100 pM
IC50 (pM), STAT-luciferase assay [4]: 130 pM
IC50 (pM), STAT-luciferase assay [5]: 45 pM

B4: Antibody C (antibody, V domains shown)
VH: B1 VH with S30N, T59S, M71I, K77Q, K99R, N100D, F103H
VL: B1 VL with L4M, V28G, I29S, N45K, A81E, F87Y, V106I
notes: also called VH10/VL10
kon [6]: 1.36e+06 M⁻¹ s⁻¹
Kd [7]: 2.56 pM
IC50 (pM), IFNγ human whole blood assay [10]: 97 pM
IC50 (pM), IFNγ human whole blood assay [11]: 186 pM
IC50 (pM), NK cell assay (IFNγ) [1]: 32 pM
IC50 (pM), NK cell assay (IFNγ) [2]: 29 pM
koff [13]: 4.1e-06 s⁻¹
IC50 (pM), STAT-luciferase assay [3]: 211 pM
IC50 (pM), STAT-luciferase assay [4]: 376 pM
IC50 (pM), STAT-luciferase assay [5]: 107 pM

B7: Antibody G (antibody, V domains shown)
VH: QVQLQESGPRLVKPSETLSLTCTVSGDSISSYFWSWIRQPPGKGLEWLGYIYYSGSTNYNPSLKSRVTISIDTSKNQFSLKLSSVTAADTAVYYCTRDRGSYYGSDYWGQGTLVTVSS
VL: DIQMTQSPSSVSASVGDRVTITCRAGQVISSWLAWYQQKPGKAPKLLIYAASSLQSGVPSRFSGSGSGTDFTLTISSLQPDDFATYYCQQATSFPLTFGGGTKVEIK
notes: also called VH12/VL12
kon [6]: 400000 M⁻¹ s⁻¹
Kd [7]: 2 pM
IC50 (pM), IL-22 human whole blood assay [8]: 83 pM
IC50 (pM), IL-22 human whole blood assay [9]: 66 pM
IC50 (pM), IFNγ human whole blood assay [10]: 53 pM
IC50 (pM), IFNγ human whole blood assay [11]: 93 pM
IC50 (pM), NK cell assay (IFNγ) [1]: 45 pM
IC50 (pM), NK cell assay (IFNγ) [2]: 23 pM
IC50 (pM), NK cell assay (IFNγ) [12]: 152 pM
koff [13]: 8.1e-07 s⁻¹
IC50 (pM), STAT-luciferase assay [3]: 296 pM
IC50 (pM), STAT-luciferase assay [4]: 421 pM
IC50 (pM), STAT-luciferase assay [5]: 156 pM

B8: Antibody I (antibody, V domains shown)
VH: QVQLQESGPGLVKPSETLSLTCTVSGGSISTYYWSWIRQPAGKGLEWIGLIYTSGSTNYNPSLKSRVTMSLDTSKNQFSLRLTSVTAADTAVYYCARDRGYYYGVDVWGQGTTVTVSS
VL: B7 VL with M4L, Q6P, G26S, V28G, S30A, S31G, D81E, T92D, L96P
IC50 (pM), NK cell assay (IFNγ) [1]: 69 pM
IC50 (pM), NK cell assay (IFNγ) [2]: 52 pM
IC50 (pM), STAT-luciferase assay [3]: 338 pM
IC50 (pM), STAT-luciferase assay [4]: 650 pM
IC50 (pM), STAT-luciferase assay [5]: 208 pM

B9: Antibody E (antibody, V domains shown)
VH: QVQLVESGGGVVQPGRSLRLSCAASGFTFSSYGMHWVRQAPGKGLEWVAVIWYDGSNEYYADSVKGRFTISRDNSKNTLYLQMNSLRAEDTAVYYCARDRGYTSSWYPDAFDIWGQGTMVTVSS
VL: QSVLTQPPSVSGAPGQRVTISCTGSSSNTGAGYDVHWYQQVPGTAPKLLIYGSGNRPSGVPDRFSGSKSGTSASLAITGLQAEDEADYYCQSYDSSLSGWVFGGGTRLTVL
IC50 (pM), IL-22 human whole blood assay [9]: 56 pM
IC50 (pM), IFNγ human whole blood assay [11]: 54 pM
IC50 (pM), NK cell assay (IFNγ) [2]: 21 pM
IC50 (pM), NK cell assay (IFNγ) [12]: 158 pM
IC50 (pM), STAT-luciferase assay [4]: 188 pM
IC50 (pM), STAT-luciferase assay [5]: 140 pM

Next, values leading:

IC50 (pM), NK cell assay (IFNγ) [1]: 4 pM
IC50 (pM), NK cell assay (IFNγ) [2]: 5 pM
IC50 (pM), STAT-luciferase assay [3]: 36 pM
IC50 (pM), STAT-luciferase assay [4]: 56 pM
IC50 (pM), STAT-luciferase assay [5]: 83 pM
B5: Antibody J (antibody, V domains shown)
VH: QVQLVESGGGVVQPGRSLRLSCAASGFTFSSYGMHWVRQAPGKGLEWVAVISFDGSLKYYADSVKGRFTISRDNSKNTLYLQMNSLRAEDTAVYYCARERTTLSGSYFDYWGQGTLVTVSS
VL: QAVLTQPSSLSASPGASASLTCTLRSGINVGTYRIYWYQQKPGSPPQYLLRYKSDSDKQQGSGVPSRFSGSKDASANAGILLISGLQSEDEADYYCMIWHSSASVFGGGTKLTVL

kon [6]: 3.34e+06 M⁻¹ s⁻¹
Kd [7]: 1.08 pM
IC50 (pM), NK cell assay (IFNγ) [1]: 3 pM
IC50 (pM), NK cell assay (IFNγ) [2]: 4 pM
koff [13]: 3.7e-06 s⁻¹
IC50 (pM), STAT-luciferase assay [3]: 23 pM
IC50 (pM), STAT-luciferase assay [4]: 47 pM
IC50 (pM), STAT-luciferase assay [5]: 113 pM
B6: Antibody L (antibody, V domains shown)
VH: B5 VH with G33A, V48L, A49S, F53H, L57I
VL: B5 VL
notes: also called VH4/VL4

IC50 (pM), NK cell assay (IFNγ) [1]: 7 pM
IC50 (pM), NK cell assay (IFNγ) [2]: 8 pM
IC50 (pM), STAT-luciferase assay [3]: 43 pM
IC50 (pM), STAT-luciferase assay [4]: 61 pM
IC50 (pM), STAT-luciferase assay [5]: 71 pM
B10: Antibody K (antibody, V domains shown)
VH: EVQLVESGGGLVQPGGSLRLSCVVSGFTFSSFSMNWVRQAPGKGLEWVSYISSRSSTIYYADSVKGRFTISRDNAKNSLYLQMNSLRDEDTAVYYCARRIAAAGPWGYYYAMDVWGQGTTVTVSS
VL: QPELTQPPSASASLGASVTLTCTLSSGYSDYKVDWYQLRPGKGPRFVMRVGTGGTVGSKGEGIPDRFSVLGSGLNRSLTIKNIQEEDESDYHCGADHGSGSNFVYVFGTGTKVTVL

IC50 (pM), NK cell assay (IFNγ) [1]: 8 pM
IC50 (pM), NK cell assay (IFNγ) [2]: 12 pM
IC50 (pM), STAT-luciferase assay [3]: 40 pM
IC50 (pM), STAT-luciferase assay [4]: 56 pM
IC50 (pM), STAT-luciferase assay [5]: 34 pM
B11: Antibody M (antibody, V domains shown)
VH: B10 VH with V23A, V24A, F32Y, Y60I, P105G, W106F, G107H, M112L
VL: B10 VL with E3V, S25N, L38Q, T55I, E61D, S77Y

IC50 (pM), STAT-luciferase assay [3]: 145 pM
IC50 (pM), STAT-luciferase assay [4]: 238 pM
IC50 (pM), STAT-luciferase assay [5]: 361 pM
B12: Antibody N (antibody, V domains shown)
VH: B10 VH with V23A, V24A, S31T, F32Y, R54S, I58R, Y60H
VL: B10 VL with E3V, L38Q, T55I, S77Y, S101N
